To fix the notation:
B1: mSHARPIN_(163–301) [mouse] / GST-mHOIP_(466–630) [mouse] (parent)
chain 1: SSGNFKKEELATRLSQAIAGGDEKAAAQVAAVLAQHHVALNVQLMEAWFPPGPIRLQVTVEDATSVLSSSSSAHVSLKIHPHCSIAALQDQVFSEFGFPPAVQRWVIGRCLCMPERSLASYGVSQDGDPAFLYLLSAPR
chain 2: SCGDPEKQRQDKMRKEGLQLVSMIQEGETAGASPEEVFSALQYSGTEVPLQWLRSELSYVLEMVAELAGQQDPELGAFSCQEARKAWLDRHGNLDEAVEECVRARRRKVHELQSLGFGPKEGSLQALFQHGGDVARALTELQRQRLEPFHQRLWDRDPEPTPCWD

The variants in this test derive from B1. As to the kind of experiment: SPR. The settings on record: with GST-mHOIP_(466–630) [mouse]; response read at end of injection (about 185 s); GST-mHOIP D-UBA WT immobilized with anti-GST antibody; parent: 20; read off a plot.
As for chain 1 L14A I18A, the response was -20 RU.
